Laboratory results: publication PMC4006878 (Organic letters, 2013)

Molecular target: GLP-1R (Homo sapiens, UniProt P43220)
Test: cAMP response element luciferase reporter gene assay in GLP-1R+ CHO-K1 cells
Assay type: cell-based
Conditions: 1 μM of the ligand, Figure 3A

GLP-1R, sequence (P43220 24-463): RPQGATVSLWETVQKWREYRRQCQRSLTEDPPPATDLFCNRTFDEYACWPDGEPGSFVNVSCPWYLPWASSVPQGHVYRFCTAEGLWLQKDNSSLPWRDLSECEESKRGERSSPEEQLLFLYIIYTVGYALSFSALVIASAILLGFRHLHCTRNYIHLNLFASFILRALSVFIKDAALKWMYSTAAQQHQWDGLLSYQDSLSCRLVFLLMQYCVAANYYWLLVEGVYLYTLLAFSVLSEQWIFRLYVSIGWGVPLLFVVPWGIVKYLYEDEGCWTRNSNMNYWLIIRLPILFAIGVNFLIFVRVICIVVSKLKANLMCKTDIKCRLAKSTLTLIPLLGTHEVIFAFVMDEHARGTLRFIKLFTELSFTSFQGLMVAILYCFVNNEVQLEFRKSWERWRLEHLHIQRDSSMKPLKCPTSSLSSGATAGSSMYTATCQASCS

With “exendin-4_9-39: exendin-4 fragment 9-39 used at 1 μM to inhibit GLP-1R activation” the “inhibition of GLP-1 agonism at GLP-1R” value was “inhibited”.
